{"source": "IntAct's records for PubMed 22916032", "parents": {"B1": {"name": "U3 small nucleolar RNA-associated protein 4 homolog (Homo sapiens), Q969X6 (parent)", "chain": "MGEFKVHRVRFFNYVPSGIRCVAYNNQSNRLAVSRTDGTVEIYNLSANYFQEKFFPGHESRATEALCWAEGQRLFSAGLNGEIMEYDLQALNIKYAMDAFGGPIWSMAASPSGSQLLVGCEDGSVKLFQITPDKIQFERNFDRQKSRILSLSWHPSGTHIAAGSIDYISVFDVKSGSAVHKMIVDRQYMGVSKRKCIVWGVAFLSDGTIISVDSAGKVQFWDSATGTLVKSHLIANADVQSIAVADQEDSFVVGTAEGTVFHFQLVPVTSNSSEKQWVRTKPFQHHTHDVRTVAHSPTALISGGTDTHLVFRPLMEKVEVKNYDAALRKITFPHRCLISCSKKRQLLLFQFAHHLELWRLGSTVATGKNGDTLPLSKNADHLLHLKTKGPENIICSCISPCGSWIAYSTVSRFFLYRLNYEHDNISLKRVSKMPAFLRSALQILFSEDSTKLFVASNQGALHIVQLSGGSFKHLHAFQPQSGTVEAMCLLAVSPDGNWLAASGTSAGVHVYNVKQLKLHCTVPAYNFPVTAMAIAPNTNNLVIAHSDQQVFEYSIPDKQYTDWSRTVQKQGFHHLWLQRDTPITHISFHPKRPMHILLHDAYMFCIIDKSLPLPNDKTLLYNPFPPTNESDVIRRRTAHAFKISKIYKPLLFMDLLDERTLVAVERPLDDIIAQLPPPIKKKKFGT", "partner": "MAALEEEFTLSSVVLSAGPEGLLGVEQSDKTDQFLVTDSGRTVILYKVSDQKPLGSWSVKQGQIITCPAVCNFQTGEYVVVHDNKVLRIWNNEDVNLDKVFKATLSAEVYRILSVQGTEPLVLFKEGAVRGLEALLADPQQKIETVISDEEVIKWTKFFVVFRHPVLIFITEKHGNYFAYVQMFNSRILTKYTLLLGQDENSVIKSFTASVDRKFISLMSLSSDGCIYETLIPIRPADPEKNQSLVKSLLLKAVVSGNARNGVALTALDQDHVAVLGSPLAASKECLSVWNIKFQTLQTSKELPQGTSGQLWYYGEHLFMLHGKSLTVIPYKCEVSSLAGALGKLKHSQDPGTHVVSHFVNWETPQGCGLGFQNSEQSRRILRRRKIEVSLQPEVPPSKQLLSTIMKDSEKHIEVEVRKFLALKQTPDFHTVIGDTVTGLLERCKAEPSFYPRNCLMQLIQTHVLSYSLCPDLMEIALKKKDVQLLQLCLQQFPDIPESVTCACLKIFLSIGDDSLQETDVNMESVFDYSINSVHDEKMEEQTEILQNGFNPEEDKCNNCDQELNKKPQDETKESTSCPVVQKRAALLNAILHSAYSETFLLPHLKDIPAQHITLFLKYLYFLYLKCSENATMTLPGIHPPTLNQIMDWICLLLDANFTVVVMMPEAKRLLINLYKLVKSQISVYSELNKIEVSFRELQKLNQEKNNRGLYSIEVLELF"}}}
{"variants_of": "B1", "details": "with nol11_human NOL11, Q9H8H0"}
{"variant": "R565W", "effect of a mutation on the interaction": "decreasing interaction strength"}
